Assay results published in PMC6738421.

How the values were obtained:
[1] = target: Arginyl-tRNA-protein transferase Ate1, isoform Ate1-3 (mouse) (UniProt Q9Z2A5)
[2] = target: Arginyl-tRNA-protein transferase Ate1, isoform Ate1-1 (mouse) (UniProt Q9Z2A5)
Arginyl-tRNA-protein transferase Ate1, isoform Ate1-1 (mouse), sequence (Q9Z2A5 whole entry, canonical isoform): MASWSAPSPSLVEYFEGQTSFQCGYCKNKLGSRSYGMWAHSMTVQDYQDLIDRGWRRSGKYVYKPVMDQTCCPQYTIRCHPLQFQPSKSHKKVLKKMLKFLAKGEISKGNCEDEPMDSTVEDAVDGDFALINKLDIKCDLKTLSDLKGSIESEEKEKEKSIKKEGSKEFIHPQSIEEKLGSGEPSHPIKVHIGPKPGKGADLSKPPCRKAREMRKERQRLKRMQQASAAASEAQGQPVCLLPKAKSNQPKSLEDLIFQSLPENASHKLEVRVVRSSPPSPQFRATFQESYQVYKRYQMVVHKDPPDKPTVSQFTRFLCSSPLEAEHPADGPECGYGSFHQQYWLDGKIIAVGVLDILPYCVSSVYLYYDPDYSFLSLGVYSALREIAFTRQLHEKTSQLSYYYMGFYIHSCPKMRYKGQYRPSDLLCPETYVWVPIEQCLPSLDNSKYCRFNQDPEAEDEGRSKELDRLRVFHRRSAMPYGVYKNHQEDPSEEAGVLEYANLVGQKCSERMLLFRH

BSA, sequence (P02769 25-607): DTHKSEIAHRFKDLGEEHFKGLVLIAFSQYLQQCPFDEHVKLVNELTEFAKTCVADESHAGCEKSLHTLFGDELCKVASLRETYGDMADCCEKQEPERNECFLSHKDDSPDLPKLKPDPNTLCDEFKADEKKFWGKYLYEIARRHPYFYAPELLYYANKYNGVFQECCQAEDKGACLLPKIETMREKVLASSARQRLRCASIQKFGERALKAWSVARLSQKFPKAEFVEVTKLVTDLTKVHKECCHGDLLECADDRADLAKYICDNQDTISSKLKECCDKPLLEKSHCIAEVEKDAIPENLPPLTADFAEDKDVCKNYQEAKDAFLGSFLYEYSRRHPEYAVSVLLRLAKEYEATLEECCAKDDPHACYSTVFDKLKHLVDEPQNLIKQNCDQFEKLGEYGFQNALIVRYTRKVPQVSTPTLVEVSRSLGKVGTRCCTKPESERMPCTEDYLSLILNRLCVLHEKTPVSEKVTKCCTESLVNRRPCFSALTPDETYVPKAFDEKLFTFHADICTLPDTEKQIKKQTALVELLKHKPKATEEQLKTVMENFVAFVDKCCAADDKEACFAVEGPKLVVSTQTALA
Arginyl-tRNA-protein transferase Ate1, isoform Ate1-3 (mouse), sequence (Q9Z2A5 other isoform, or with tags, fused parts or gaps): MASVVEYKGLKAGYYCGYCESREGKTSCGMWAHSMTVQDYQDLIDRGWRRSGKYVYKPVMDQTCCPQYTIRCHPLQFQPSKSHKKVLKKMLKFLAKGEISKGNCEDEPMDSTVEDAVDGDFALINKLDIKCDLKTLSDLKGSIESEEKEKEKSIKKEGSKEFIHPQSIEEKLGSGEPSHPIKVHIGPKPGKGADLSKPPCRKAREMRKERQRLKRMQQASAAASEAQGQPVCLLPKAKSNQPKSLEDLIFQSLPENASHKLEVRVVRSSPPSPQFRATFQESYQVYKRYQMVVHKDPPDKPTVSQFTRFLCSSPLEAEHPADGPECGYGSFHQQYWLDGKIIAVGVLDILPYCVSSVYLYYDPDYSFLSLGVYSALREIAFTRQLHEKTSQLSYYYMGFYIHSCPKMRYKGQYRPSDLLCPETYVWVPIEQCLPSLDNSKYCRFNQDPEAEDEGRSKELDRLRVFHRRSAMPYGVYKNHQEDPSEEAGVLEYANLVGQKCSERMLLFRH

Km of arginylation of the substrate by Ate1-3 (enzyme kinetics by ITC) [1]: 52.5 µM
Km of arginylation of the substrate by Ate1-1 (enzyme kinetics by ITC) [2]: 33.2 µM
Substance: BSA (from UniProt P02769 25-607) (natural protein)
